In this assay the target is streptavidin (UniProt P22629). The assay is described as follows: polyaniline polymeric wire biosensor, streptavidin on NC membrane, pulse mode voltammetry.

Here are results for 1 substance from patent US20110171749A1.

For “biotin conjugate goat anti-mouse IgG (whole molecule), conjugated with magnetic composite Fe2O3/polyaniline particles (antibody)”, the resistance was 4.3 kΩ.
